Test results reported in patent publication US20200247855A1, “THERAPY AND DIAGNOSTICS” (OXFORD UNIVERSITY INNOVATION LIMITED, priority 2017, published 2020).

Legend:
[1] = biological target: T1, CCL8_HUMAN (human), P80075; assay: fluorescence polarisation; Kd1, two-site fit; details: modification not given
T1 chain: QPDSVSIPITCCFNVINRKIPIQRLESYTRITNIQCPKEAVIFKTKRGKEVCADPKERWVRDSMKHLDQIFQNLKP

[2] = biological target: T1, CCL8_HUMAN (human), P80075; assay: fluorescence polarisation; Kd2, two-site fit; details: modification not given
[3] = biological target: T1, CCL8_HUMAN (human), P80075; assay: FACS, inhibition of CCL8-647 binding to THP-1 cells; details: modification not given
[4] = biological target: T2, CCL5_HUMAN (human), P13501; assay: BLI; details: remark: other sources report otherwise
T2 chain: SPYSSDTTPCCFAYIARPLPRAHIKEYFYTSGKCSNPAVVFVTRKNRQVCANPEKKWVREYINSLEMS

Q: For EDEDYEDFFKPVTAYF [P672_PEP-FITC], which Kd [1] is on record?
A: Its Kd is 11.9 nM.

Q: What about the Kd [2] of the same binder?
A: Its Kd is 252 nM.

Q: With EDEDYEDFFKPVTAYF [P672_PEP (peptide BK1.1)] as the binder, how does the IC50 [3] read?
A: The IC50 was 4.9 µM.

B1: P974_AMBCA, A0A023FDY8 22-118 (protein)
chain: ENTQQEEQDYDYGTDTCPFPVLANKTNKAKFVGCHQKCNGGDQKLTDGTACYVVERKVWDRMTPMLWYECPLGECKNGVCEDLRKKEDCRKGNGEEK
Q: B1 was tested. Which Kd [4] did it give?
A: Its Kd is 160 nM.
